Measured values published in PMC4015666 (Journal of Diabetes Investigation, 2013).

Experiments:
[1] = Hypoglycemia monitoring after insulin lispro injection; type: in vivo, healthy Japanese adult males; conditions: 1.5 or 2.0 U s.c. abdomen, 12 participants, three tests each
[2] = 0.025‐U/kg dose; cited from earlier work
[3] = parameters: species or system healthy Japanese adult males; conditions: in vivo

With insulin lispro as the substance, how does the “participants who developed severe hypoglycemia (<50 mg/dL)” value [1] read?
Its value is “None”.

What about the “half‐life” value [2] of the same substance?
Its value is 53 min.

What about the “time to the maximum insulin concentration (Tmax)” value [2] of the same substance?
The value was “approximately 37 min”.

And the “Bioequivalence of AUC0–∞” value [3]?
The value was “bioequivalent”.

And the “Bioequivalence of Cmax” value [3]?
The value was “bioequivalent”.

And the “Bioequivalence of Tmax” value [3]?
The value was “bioequivalent”.
